Patent US20200338203A1 (Bicycle, published 2020)
Where two headings read alike, the source gives them in different places. Numbered stars: 1 amine (or outer) side, 2 acyl side, 3 side chain; on linkers, the order of the positions; unused ones are H or OH. Bridge positions count the residues as written; N and C are the ends. Square brackets hold non-standard residues; d marks the D form. Primed or numbered codes have the meaning given here. Ends that are not written are not given here. K(Fl)″ = lysine labelled with carboxyfluorescein; K(Fl) = Lys carrying 5(6)-carboxyfluorescein; 1Nal = N[C@@H](Cc1cccc2ccccc12)C(=O)O; TBMB = c1c(C[*:1])cc(C[*:3])cc1C[*:2]; Gly(cPent) = N[C@H](C(=O)O)C1CCCC1; hArg = N=C(N)NCCCC[C@H](N)C(=O)O; Tle = CC(C)(C)[C@H](N)C(=O)O; AF488 = AlexaFluor488 label; Aib = CC(C)(N)C(=O)O; βAla = NCCC(=O)O; Sar = CNCC(=O)O

T1: rat EphB1 (Rat, UniProt P09759 18-540)
T1 construct: extracellular domain; also called EphB1 (Ecto), Rat
T1 sequence (looked up): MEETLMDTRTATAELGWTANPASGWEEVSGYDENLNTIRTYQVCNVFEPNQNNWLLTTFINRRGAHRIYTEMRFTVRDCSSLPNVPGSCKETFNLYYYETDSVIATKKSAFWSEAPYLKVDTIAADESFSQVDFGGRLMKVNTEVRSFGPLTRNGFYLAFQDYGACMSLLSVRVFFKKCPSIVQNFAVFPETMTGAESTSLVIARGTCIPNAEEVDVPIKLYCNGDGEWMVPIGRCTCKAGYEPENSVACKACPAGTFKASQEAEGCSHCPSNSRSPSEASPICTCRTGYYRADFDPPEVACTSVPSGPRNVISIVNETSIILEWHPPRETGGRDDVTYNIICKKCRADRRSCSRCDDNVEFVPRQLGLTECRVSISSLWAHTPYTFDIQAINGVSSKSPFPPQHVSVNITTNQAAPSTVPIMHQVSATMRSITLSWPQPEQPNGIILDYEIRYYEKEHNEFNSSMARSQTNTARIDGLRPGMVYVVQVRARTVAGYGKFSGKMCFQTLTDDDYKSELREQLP

T2: Human EphA1 (Human, UniProt P21709 26-547)
T2 construct: extracellular domain; also called EphA1 (Ecto), Human
T2 sequence (looked up): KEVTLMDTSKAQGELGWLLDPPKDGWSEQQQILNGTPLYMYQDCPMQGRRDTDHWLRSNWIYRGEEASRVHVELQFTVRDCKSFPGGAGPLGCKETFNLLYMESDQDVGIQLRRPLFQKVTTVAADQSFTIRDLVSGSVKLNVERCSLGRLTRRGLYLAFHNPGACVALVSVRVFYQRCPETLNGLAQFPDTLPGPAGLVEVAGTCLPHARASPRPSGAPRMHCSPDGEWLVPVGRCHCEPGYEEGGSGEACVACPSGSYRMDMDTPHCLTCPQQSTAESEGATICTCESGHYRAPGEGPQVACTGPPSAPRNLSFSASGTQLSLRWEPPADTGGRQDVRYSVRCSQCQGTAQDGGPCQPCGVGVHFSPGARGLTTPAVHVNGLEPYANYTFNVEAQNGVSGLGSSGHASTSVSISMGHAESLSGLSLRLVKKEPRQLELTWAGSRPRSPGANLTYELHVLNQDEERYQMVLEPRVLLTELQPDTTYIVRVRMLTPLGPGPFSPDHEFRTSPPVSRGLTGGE


Assays:
Human EphA2 [1] = target: T3, Human EphA2 (Human, UniProt P29317 24-537); assay: FP competition; competitor: fluorescent Compound 18
T3 construct: extracellular domain; also called EphA2 (Ecto), Human
Procedure: (§1) Peptides without a fluorescent tag were tested in competition with a peptide with a fluorescent tag and a known Kd (Table 2). Peptides were diluted to an appropriate concentration in assay buffer as described in the direct binding assay with a maximum of 5% DMSO, then serially diluted 1 in 2. Five μL of diluted peptide was added to the plate followed by 10 μL of human or mouse EphA2 (Table 1) at a fixed concentration which was dependent on the fluorescent peptide used (Table 2), then 10 μL fluorescent peptide added. Measurements were conducted as for the direct binding assay, however the gain was determined prior to the first measurement.

Human EphA2 (Ecto) [2] = target: T4, Human EphA2 (Ecto) (Human, UniProt P29317 24-537); assay: FP competition; competitor Compound 18
T4 construct: extracellular domain

Mouse EphA2 (Ecto) [3] = target: T5, Mouse EphA2 (Ecto) (Mouse, UniProt Q03145 26-538); assay: FP competition; competitor Compound 18
T5 construct: extracellular domain; not shown: Fc fusion or C-terminal polyHis

Human EphA2 (Ecto) [4] = target: T4, Human EphA2 (Ecto); assay: FP direct binding
[5] = target: Human & mouse EphA3 (Human & mouse) (UniProt P29320); assay: FP direct binding, selectivity
Human EphA2 [6] = target: T3, Human EphA2; assay: FP competition; competitor: fluorescent Compound 66
Procedure: as §1

mouse EphA2 = target: T6, mouse EphA2 (Mouse, UniProt Q03145 26-538); assay: FP direct binding, selectivity
T6 construct: extracellular domain; C-terminal polyHis; also called EphA2 (Ecto), Mouse
Procedure: (§2) The gain used for analysis was determined for each tracer at the end of the 60 minutes where there was no protein in the well. Data was analysed using Systat Sigmaplot version 12.0. mP values were fit to a user defined quadratic equation to generate a Kd value: f=ymin+(ymax−ymin)/Lig*((x+Lig+Kd)/2-sqrt((((x+Lig+Kd)/2)\hat{ }2)−(Lig*x))). “Lig” was a defined value of the concentration of tracer used.

rat EphB1 = target: T1, rat EphB1; assay: FP direct binding, selectivity
Procedure: as §2

Human EphA1 = target: T2, Human EphA1; assay: FP direct binding, selectivity
Procedure: as §2

Mouse EphA2 (Ecto) [7] = target: T5, Mouse EphA2 (Ecto); assay: FP direct binding
dog EphA2 (Dog) = assay: FP direct binding, selectivity
rat EphA2 = rat EphA2 (Rat, UniProt D3ZBN3 27-205); assay: FP direct binding, selectivity
Procedure: as §2

Human EphA2 (Ecto) [8] = target: T4, Human EphA2 (Ecto); assay: FP competition; competitor Compound 18; remark: listed apart in the source

T4 sequence (P29317 24-537): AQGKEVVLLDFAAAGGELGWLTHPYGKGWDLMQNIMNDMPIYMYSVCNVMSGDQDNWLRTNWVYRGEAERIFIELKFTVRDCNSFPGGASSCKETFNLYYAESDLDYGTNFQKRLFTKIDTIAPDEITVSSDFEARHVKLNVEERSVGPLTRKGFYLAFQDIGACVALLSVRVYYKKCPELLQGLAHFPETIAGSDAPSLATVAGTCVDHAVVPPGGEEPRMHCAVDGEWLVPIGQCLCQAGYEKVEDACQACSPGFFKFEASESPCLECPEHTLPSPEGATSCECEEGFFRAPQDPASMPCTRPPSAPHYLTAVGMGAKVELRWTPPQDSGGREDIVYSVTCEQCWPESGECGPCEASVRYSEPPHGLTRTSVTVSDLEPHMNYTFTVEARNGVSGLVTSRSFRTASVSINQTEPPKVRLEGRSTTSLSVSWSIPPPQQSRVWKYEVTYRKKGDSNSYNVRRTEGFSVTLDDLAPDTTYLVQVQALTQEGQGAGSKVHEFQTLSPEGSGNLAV
T3 sequence (P29317 24-537): as above
T6 sequence (Q03145 26-538): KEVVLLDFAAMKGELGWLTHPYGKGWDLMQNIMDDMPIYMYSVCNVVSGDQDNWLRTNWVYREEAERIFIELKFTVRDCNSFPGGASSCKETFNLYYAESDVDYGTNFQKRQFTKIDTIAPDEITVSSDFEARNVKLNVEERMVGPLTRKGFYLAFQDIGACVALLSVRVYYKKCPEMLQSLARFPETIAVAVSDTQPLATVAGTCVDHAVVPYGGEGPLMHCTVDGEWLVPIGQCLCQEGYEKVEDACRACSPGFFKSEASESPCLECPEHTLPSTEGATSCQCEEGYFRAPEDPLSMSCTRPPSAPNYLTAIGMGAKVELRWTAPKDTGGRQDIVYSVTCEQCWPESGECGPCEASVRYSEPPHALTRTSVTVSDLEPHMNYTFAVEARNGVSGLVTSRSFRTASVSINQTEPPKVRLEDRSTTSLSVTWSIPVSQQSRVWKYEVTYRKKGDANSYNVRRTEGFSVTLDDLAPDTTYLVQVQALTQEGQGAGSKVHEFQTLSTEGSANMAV
T5 sequence (Q03145 26-538): as above
Sequence of Human & mouse EphA3 (Human & mouse) (P29320 21-541): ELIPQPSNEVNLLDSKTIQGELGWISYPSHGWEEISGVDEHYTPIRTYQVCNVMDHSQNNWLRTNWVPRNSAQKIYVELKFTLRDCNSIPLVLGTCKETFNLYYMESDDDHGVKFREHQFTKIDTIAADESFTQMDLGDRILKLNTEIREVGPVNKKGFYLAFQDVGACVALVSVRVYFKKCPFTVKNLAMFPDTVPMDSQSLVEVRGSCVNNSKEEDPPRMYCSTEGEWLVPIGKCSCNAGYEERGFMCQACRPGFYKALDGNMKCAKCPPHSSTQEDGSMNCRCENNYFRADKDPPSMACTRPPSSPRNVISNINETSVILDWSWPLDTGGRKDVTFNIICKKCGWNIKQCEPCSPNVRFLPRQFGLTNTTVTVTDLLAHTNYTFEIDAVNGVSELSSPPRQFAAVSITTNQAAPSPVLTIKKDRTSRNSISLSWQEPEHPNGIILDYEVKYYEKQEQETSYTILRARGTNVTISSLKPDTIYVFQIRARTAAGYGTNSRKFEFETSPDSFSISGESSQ

Row | Ki (Human EphA2 [1]) [nM] | Ki (Human EphA2 [6]) [nM] | Binder | further results
1 | 2 |  | ADVHCPWGPFWCPV[dA]RPGCA (linker 5-12-19 via TBMB, bicyclic peptide) [Compound 155] | 
2 | 1.8 |  | ADVHCPWGAFWCPVNRPGCA (linker 5-12-19 via TBMB, bicyclic peptide) [Compound 152] | 
3 | 14.9 |  | ADVHCPWGPFWCPVN[dA]PGCA (linker 5-12-19 via TBMB, bicyclic peptide) [Compound 156] | 
4 | 6.69 |  | Ac-[Sar][Sar]A[dD]VTCPWGPAWCPVNRPGC (linker 7-14-21 via TBMB, bicyclic peptide) [Compound 173] | 
5 | > 1000 |  | [Sar][Sar]ACPWGPFWCAVNRPGC (linker 4-11-18 via TBMB, bicyclic peptide) [Compound 291] | 
6 | > 1000 |  | [Sar][Sar]ACPWAPFWCPVNRPGC (linker 4-11-18 via TBMB, bicyclic peptide) [Compound 288] | 
7 | > 1000 | 1100 | [Sar][Sar]ACPWGAFWCPVNRPGC (linker 4-11-18 via TBMB, bicyclic peptide) [Compound 289] | 
8 |  | 886 | [Sar][Sar]ACAWGPFWCPVNRPGC (linker 4-11-18 via TBMB, bicyclic peptide) [Compound 286] | 
9 |  | 711 | [Sar][Sar]ACPWGPFWCPVNAPGC (linker 4-11-18 via TBMB, bicyclic peptide) [Compound 293] | 
10 |  | 954 | [Sar][Sar]ACPWGPFWCPANRPGC (linker 4-11-18 via TBMB, bicyclic peptide) [Compound 292] | 
11 |  | 1000 | [Sar][Sar]ACPW[dA]PFWCPVNRPGC (linker 4-11-18 via TBMB, bicyclic peptide) [Compound 296] | 
12 |  | 1500 | [Sar][Sar]ACPWG[dA]FWCPVNRPGC (linker 4-11-18 via TBMB, bicyclic peptide) [Compound 297] | 
13 | > 1000 | 1410 | [Sar][Sar]ACPWGPFWCPVN[dA]PGC (linker 4-11-18 via TBMB, bicyclic peptide) [Compound 302] | 

The next lines start with the binder.

Row | Binder | Ki (Human EphA2 [1]) [nM] | Ki (Human EphA2 [6]) [nM] | further results
14 | Ac-[Sar][Sar]A[dD]VTCPWGPFWCPVNRPGC (linker 7-14-21 via TBMB) [Compound 158] |  |  | Ki (Human EphA2 (Ecto) [2]): 2.05 nM; Ki (Mouse EphA2 (Ecto) [3]): 2.2 nM
15 | Ac-[Sar][Sar]A[dD][Gly(cPent)]VTCPWGPFWCPVNRPGC (linker 8-15-22 via TBMB) [Compound 163] |  |  | Ki (Human EphA2 (Ecto) [2]): 1.33 nM; Ki (Mouse EphA2 (Ecto) [3]): 1.74 nM
16 | {AF488-βAla}-[Sar][Sar][Sar][Sar][Sar][Sar][Sar][Sar][Sar][Sar]H[dD][Gly(cPent)]PC[Aib][1Nal]G[Aib]F[1Nal]CP[Tle]NR[Aib][dD]C (linker 15-22-29 via TBMB) [Compound 146] |  |  | Kd (Human EphA2 (Ecto) [4]): 2.19 nM; Kd [5]: 7190 nM
17 | ADVHCPWAPFWCPVNRPGCA (linker 5-12-19 via TBMB, bicyclic peptide) [Compound 151] | 394 |  | 
18 | [Sar][Sar]ACPWGPFWCPVNRP[dA]C (linker 4-11-18 via TBMB, bicyclic peptide) [Compound 112] | 89 | 110 | 
19 | Ac-[Sar][Sar]H[dD]VPCPWGPFWCPVNRPGC (linker 7-14-21 via TBMB) [Compound 225] |  |  | Ki (Human EphA2 (Ecto) [2]): 1 nM; Ki (Mouse EphA2 (Ecto) [3]): 2.08 nM
20 | ACPWGPAWCPVNRPGCA (N-terminal Fl-G-Sar5 before the entry (5(6)-carboxyfluorescein, Gly, five sarcosines); three Cys cyclised on TBMB, bicyclic peptide, fluorescent) [Compound 12] |  |  | Kd (mouse EphA2): 55.5 nM
21 | ACPWGPFWCPVNRPGCA (N-terminal Fl-G-Sar5 before the entry; three Cys cyclised on TBMB, bicyclic peptide, fluorescent) [Compound 66] |  |  | Kd (rat EphB1): 2270 nM; Kd (Human EphA1): 1180 nM
22 | ACLVNDDCFYMGLCA[Sar][Sar][Sar][Sar][Sar][Sar]-{K(Fl)″} (linker 2-8-14 via TBMB, bicyclic peptide, fluorescent) [Compound 23] |  |  | Kd (mouse EphA2): 386 nM
23 | {AF488-βAla}-[Sar][Sar][Sar][Sar][Sar][Sar][Sar][Sar][Sar][Sar]H[dD]VPC[Aib][1Nal]G[Aib]F[1Nal]CP[Tle]N[hArg]P[dD]C (linker 15-22-29 via TBMB) [Compound 140] |  |  | Kd (Human EphA2 (Ecto) [4]): 2.05 nM; Kd (Mouse EphA2 (Ecto) [7]): 4.55 nM; Kd [5]: 3690 nM; Kd (dog EphA2 (Dog)): 8.7 nM; Kd (rat EphA2): 1.57 nM; Kd (mouse EphA2): 4.55 nM
24 | [Sar][Sar]ACPWGPFWCPVNR[dA]GC (linker 4-11-18 via TBMB, bicyclic peptide) [Compound 105] | 677 | 471 | 
25 | [Sar][Sar]ACPWGPAWCPVNRPGC (linker 4-11-18 via TBMB, bicyclic peptide) [Compound 83] | 199 | 288 | 
26 | [Sar][Sar]ACPWGPFWCPVNRPAC (linker 4-11-18 via TBMB, bicyclic peptide) [Compound 111] | 108 | 238 | 
27 | ACPWGPFWCPVARPGC (N-terminal Sar2 before the entry; three Cys cyclised on TBMB, bicyclic peptide) [Compound 101] | 293 | 265 | 
28 | [Sar][Sar]ACPWGPFWCPVNRAGC (linker 4-11-18 via TBMB, bicyclic peptide) [Compound 104] | 124 | 194 | 
29 | Ac-[Sar][Sar]H[dD]VPCP[1Nal]G[Aib]F[1Nal]CP[Tle]NR[Aib]GC (linker 7-14-21 via TBMB) [Compound 262] |  |  | Ki (Mouse EphA2 (Ecto) [3]): 0.72 nM; Ki (Human EphA2 (Ecto) [8]): 0.71 nM
30 | ACMNDWLCSLGWTCA[Sar][Sar][Sar][Sar][Sar][Sar]-{K(Fl)} (linker 2-8-14 via TBMB) [Compound 1] |  |  | Kd (Human EphA1): 1640 nM
